{"source": "patent US7943295B2", "about": "“Screening and therapeutic method for NSCLC targeting CDCA1-KNTC2 complex” (Oncotherapy Science, Inc., priority 2005, dated 2011)", "molecules": {"B1": {"name": "CDCA11-148: C-terminal FLAG-tagged deletion-construct of CDCA1 (protein)", "chain": "METLSFPRYNVAEIVIHIRNKILTGADGKNLTKNDLYPNPKPEVLHMIYMRALQIVYGIRLEHFYMMPVNSEVMYPHLMEGFLPFSNLVTHLDSFLPICRVNDFETADILCPKAKRTSRFLSGIINFIHFREACRETYMEFLWQYKSS", "modifications": "left off: small tags and cut ends", "notes": "C-terminal FLAG-tagged deletion-construct of CDCA1"}, "B2": {"name": "CDCA1 149-306: C-terminal FLAG-tagged deletion-construct of CDCA1, served as a control (protein)", "chain": "ADKMQQLNAAHQEALMKLERLDSVPVEEQEEFKQLSDGIQELQQSLNQDFHQKTIVLQEGNSQKKSNISEKTKRLNELKLLVVSLKEIQESLKTKIVDSPEKLKNYKEKMKDTVQKLKNARQEVVEKYEIYGDSVDCLPSCQLEVQLYQKKIQDLSDN", "modifications": "left off: small tags and cut ends", "notes": "C-terminal FLAG-tagged deletion-construct of CDCA1, served as a control"}, "B3": {"name": "CDCA1 277-367: C-terminal FLAG-tagged deletion-construct of CDCA1 (protein)", "chain": "EIYGDSVDCLPSCQLEVQLYQKKIQDLSDNREKLASILKESLNLEDQIESDESELKKLKTEENSFKRLMIVKKEKLATAQFKINKKHEDVK", "modifications": "left off: small tags and cut ends"}, "B4": {"name": "CDCA1 200-464: C-terminal FLAG-tagged deletion-construct of CDCA1 lacking the N-terminal portion; dominant-negative fragment (protein)", "chain": "QKTIVLQEGNSQKKSNISEKTKRLNELKLLVVSLKEIQESLKTKIVDSPEKLKNYKEKMKDTVQKLKNARQEVVEKYEIYGDSVDCLPSCQLEVQLYQKKIQDLSDNREKLASILKESLNLEDQIESDESELKKLKTEENSFKRLMIVKKEKLATAQFKINKKHEDVKQYKRTVIEDCNKVQEKRGAVYERVTTINQEIQKIKLGIQQLKDAAEREKLKSQEIFLNLKTALEKYHDGIEKAAEDSYAKIDEKTAELKRKMFKMST", "modifications": "left off: small tags and cut ends", "notes": "C-terminal FLAG-tagged deletion-construct of CDCA1 lacking the N-terminal portion; dominant-negative fragment"}}, "key": {"[1]": {"target": "T1, endogenous KNTC2 (Homo sapiens, UniProt O14777)", "T1 construct": "endogenous in cells; host or cells: LC319", "T1 sequence (O14777 1-642)": "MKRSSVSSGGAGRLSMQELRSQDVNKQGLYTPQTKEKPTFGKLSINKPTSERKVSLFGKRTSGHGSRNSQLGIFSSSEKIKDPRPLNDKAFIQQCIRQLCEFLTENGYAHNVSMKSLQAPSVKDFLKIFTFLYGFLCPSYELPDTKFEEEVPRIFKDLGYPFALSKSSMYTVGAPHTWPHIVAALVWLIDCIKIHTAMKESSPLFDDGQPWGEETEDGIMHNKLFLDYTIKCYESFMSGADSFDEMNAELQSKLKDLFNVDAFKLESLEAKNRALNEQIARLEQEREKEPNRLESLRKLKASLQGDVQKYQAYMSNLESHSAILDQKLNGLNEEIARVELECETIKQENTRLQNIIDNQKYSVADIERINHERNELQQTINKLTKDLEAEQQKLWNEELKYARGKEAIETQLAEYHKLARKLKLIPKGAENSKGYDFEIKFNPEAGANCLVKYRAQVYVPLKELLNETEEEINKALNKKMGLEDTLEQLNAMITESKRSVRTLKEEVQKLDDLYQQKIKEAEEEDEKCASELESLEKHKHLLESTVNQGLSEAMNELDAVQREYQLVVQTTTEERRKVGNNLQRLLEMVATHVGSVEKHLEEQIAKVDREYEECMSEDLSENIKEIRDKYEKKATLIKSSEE", "experiment": "Immunoprecipitation of FLAG-tagged CDCA1 deletion-constructs in LC319 cells", "type": "binding", "details": "LC319 cells transfected with deletion-construct", "procedure": "(g) Identification of the KNTC2-binding region in CDCA1: Eleven deletion-constructs of CDCA1 (CDCA1 200-464, CDCA1 149-464, CDCA11-348, CDCA11-148, CDCA1 149-306, CDCA1 306-464, CDCA1 319-464, CDCA1 277-416, CDCA1 277-367, CDCA1 319-416, and CDCA1 319-367) were cloned into appropriate sites of C-terminal FLAG-tagged-pCAGGS vector. Cell extracts from lung-cancer cell line LC319, transfected with plasmids expressing eleven deletion-constructs of CDCA1 were pre-cleared by incubation at 4° C. for 1 hour with 100 μl of protein G-agarose beads in final volumes of 2 ml of immunoprecipitation buffer (0.5% NP-40, 50 mM Tris-HCl, 150 mM NaCl) in the presence of proteinase inhibitor. After centrifugation at 1,000 rpm for 5 min at 4° C., the supernatants were incubated at 4° C. with anti-FLAG M2 agarose for 2 hours. After the beads were collected from each sample by centrifugation at 5,000 rpm for 2 min and washed six times with 1 ml of immunoprecipitation buffer, the washed beads were re-suspended in 50 μl of Laemmli sample buffer and boiled for 5 min before the proteins were separated on 10% SDS PAGE gels. Immunoblot was performed using KNTC2 polyclonal antibody (Abcom, Inc.) and anti-FLAG M2 monoclonal antibody respectively (Sigma-Aldrich Co.)."}, "[2]": {"experiment": "Mouse model: body weight and food intake", "type": "in vivo, BALB/c nude mice", "details": "intratumoral 0.15 μmol/body/day for 7 weeks, among three treatment groups, data not shown", "procedure": "(n) Mouse model: The animal experiments were conducted according to the institutional and national guidelines for the care and use of laboratory animals, and approved by the institutional animal use committee. 1×10^6 of A549 cells were subcutaneously implanted into the right shoulder of 6-week-old male BALB/c nude mice (nu/nu). Two weeks after the injection, the mice with tumor (30 mm^3 volume on average) were randomized into three groups and intratumorly administered with 11R-CDCA1398-416 peptides (0.15 μmol/body/day), scramble (0.15 μmol/body/day), or PBS (control) for 7 weeks. Tumor volume was measured once a day by using a caliper and applying the data to the formula (volume=0.52×[width]^2×[length]) to calculate the volume of a spheroid."}, "[3]": {"system": "MRC5 cells", "experiment": "MTT assay, 11R-peptides on normal lung fibroblasts", "type": "cell-based", "details": "normal human lung fibroblast derived MRC5 cells, hardly detectable CDCA1 and KNTC2", "procedure": "(m) Effect of 11R-peptides on lung-cancer cell growth: LC319 and […] and normal human lung fibroblast derived MRC5 cells were incubated with 11R-peptides at the concentration of 5 μM, 10 μM, and 20 μM for seven days. The medium was exchanged every other day at the appropriate concentrations of each peptide and the viability of cells was evaluated by MTT assay at 7 days after the treatment; briefly, cell-counting kit-8 solution (DOJINDO, Kumamoto, Japan) was added to each dish at a concentration of 1/10 volume, and the plates were incubated at 37° C. for additional 4 hours. Absorbance was then measured at 490 nm, and at 630 nm as a reference, with a Microplate Reader 550 (BIO-RAD). Flow-cytometric analysis was performed as described previously (Suzuki, C. et al. Cancer Res. 65, 11314-11325 (2005).)."}, "[4]": {"target": "T2, CDCA1-KNTC2 complex (Homo sapiens, UniProt O14777)", "T2 construct": "full length) and endogenous KNTC2; expressed in transfected cells; host or cells: LC319", "T2 sequence (O14777 1-642)": "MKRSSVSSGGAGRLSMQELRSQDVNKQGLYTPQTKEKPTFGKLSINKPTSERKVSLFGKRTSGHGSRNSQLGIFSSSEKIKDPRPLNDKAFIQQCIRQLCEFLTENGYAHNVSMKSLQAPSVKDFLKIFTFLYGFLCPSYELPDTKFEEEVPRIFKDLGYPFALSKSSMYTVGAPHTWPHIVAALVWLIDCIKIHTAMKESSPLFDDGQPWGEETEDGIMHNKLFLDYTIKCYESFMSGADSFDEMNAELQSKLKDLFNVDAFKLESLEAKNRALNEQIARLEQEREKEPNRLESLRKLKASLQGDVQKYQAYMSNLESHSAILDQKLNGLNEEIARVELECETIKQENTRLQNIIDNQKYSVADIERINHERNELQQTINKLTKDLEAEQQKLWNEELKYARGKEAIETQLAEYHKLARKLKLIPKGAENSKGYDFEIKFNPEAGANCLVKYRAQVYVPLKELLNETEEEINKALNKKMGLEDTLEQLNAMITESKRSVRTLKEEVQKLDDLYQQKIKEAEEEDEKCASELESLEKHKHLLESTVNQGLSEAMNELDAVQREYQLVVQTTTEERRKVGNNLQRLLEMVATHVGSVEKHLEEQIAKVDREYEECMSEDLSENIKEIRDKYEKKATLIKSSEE", "experiment": "Immunoprecipitation: suppression of CDCA1-KNTC2 complex formation in LC319 cells", "type": "binding", "details": "LC319 cells co-transfected with CDCA1 1-464 and the fragment", "procedure": "(f) Identification of CDCA1-associated Proteins: Cell extracts from lung-cancer cell line LC319 were pre-cleared by incubation at 4° C. for 1 hour with 50 μl of protein A and G-agarose beads, in final volumes of 2 ml of immunoprecipitation buffer (0.5% NP-40, 50 mM Tris-HCl, 150 mM NaCl) in the presence of proteinase inhibitor. After centrifugation at 1,000 rpm for 5 min at 4° C., the supernatants were incubated at 4° C. with anti-CDCA1 polyclonal antibody, anti-KNTC2 polyclonal antibody, or normal rabbit IgG for 2 hours. […] The nucleotide sequence of each cDNA clone was determined with an ABI Prism 3700 DNA sequencer (Applied Biosystems, Foster City, Calif.), using T3, T7, or synthetic oligonucleotide primers according to the manufacturer's instructions. […]\nSince the band of endogenous CDCA1 immunoprecipitated with anti-CDCA1/KNTC2 antibody overlapped with IgG-heavy chain bands, it was difficult to detect the interaction between endogenous CDCA1 and KNTC2. […] Interaction of only CDCA1 1-464 (full length) or CDCA1 200-464 with endogenous KNTC2 was detected by immunoprecipitation using anti-KNTC2 polyclonal antibody (FIG. 5A; left top panel; black and white arrows). […]"}, "[5]": {"system": "LC319 cells", "experiment": "MTT assay after transfection of dominant-negative CDCA1 fragment", "type": "cell-based, human", "details": "LC319 transfected with fragment plasmid; P=0.0026 CDCA1 200-464 vs CDCA1 149-306"}}, "note": "“Also recorded” adds a separate entry of the source. Where no end group is shown, it is not given here.", "data": [{"molecule": "CDCA1 319-367: C-terminal FLAG-tagged deletion-construct of CDCA1 (NLEDQIESDESELKKLKTEENSFKRLMIVKKEKLATAQFKINKKHEDVK-{FLAG tag})", "values": [{"measurement": "interaction with endogenous KNTC2", "setting": "[1]", "result": "unable to interact"}]}, {"molecule": "RRRRRRRRRRRGGGIQKIKLGIQQLKDAAEREK [11R-CDCA1 398-416]", "values": [{"measurement": "body weight", "setting": "[2]", "result": "no difference"}, {"measurement": "food intake", "setting": "[2]", "result": "no difference"}, {"measurement": "cell viability (MTT)", "setting": "[3]", "result": "no off-target effect"}]}, {"molecule": "B1", "values": [{"measurement": "interaction with endogenous KNTC2", "setting": "[1]", "result": "unable to interact; also recorded: did not retain any appreciable ability to interact"}]}, {"molecule": "B2", "values": [{"measurement": "interaction with endogenous KNTC2", "setting": "[1]", "result": "unable to interact"}, {"measurement": "interaction with endogenous KNTC2", "setting": "[1]; listed as CDCA1149-306", "result": "did not retain any appreciable ability to interact"}]}, {"molecule": "B3", "values": [{"measurement": "interaction with endogenous KNTC2", "setting": "[1]", "result": "unable to interact"}]}, {"molecule": "B4", "values": [{"measurement": "complex formation between exogenous CDCA1 (full length) and endogenous KNTC2", "setting": "[4]", "result": "reduced complex formation; also recorded: reduction of the complex formation"}, {"measurement": "cell viability (MTT)", "setting": "[5]", "result": "significant decreases; also recorded: dominant-negative effect"}, {"measurement": "interaction with endogenous KNTC2", "setting": "[1]", "result": "strongest affinity; also recorded: Interaction"}]}]}
